Results: article PMC6748655 (Cell host & microbe, 2019)

Key:
[1] = biological target: HA on intact H3N2 A/Aichi/2/1968 (X31) virions (Influenza A virus H3N2 A/Aichi/2/1968 …, UniProt P03437, strain); test: ELISA
representative H4 HA = representative H4 HA (Influenza A virus H4, strain not named …, UniProt M1UPL4, strain); test: ELISA

B1: FL-1066 IgG (human IgG1) (antibody, V domains shown)
VH: DVKLVESGEGLVKPGGSLKLSCAASGFTFSGYDMSWVRQTPEKRLEWVAYISSGGDYIYYADTVKGRFTISRDNARNTLYLQMSSLKSEDTAMYYCTRDSDYYGSRVWFAYWGQGTLVTVSG
VL: QAVVTQESALTTSPGETVTLTCRSSTGAVTTSNYANWVQEKPDHLFTGLIGGTNNRAPGVPARFSGSLIGDKAALTITGAQTEDEAIYFCALWFSNHWVFGGGTKLTVL
binding result [1]: binds
binding result (representative H4 HA): binds
